Data on 1 molecule can be found in CN117180420A (DRAGONBOAT BIOPHARMACEUTICAL SHANGHAI CO LTD, dated 2023).

What is called IC50 is the concentration that gives 50% inhibition. Read a high IC50 as weaker potency.

This experiment concerns the target T1, CD47 on NUGC-4 cells / hCLDN18.2-NUGC-4 cells (human, UniProt Q08722 19-323).
T1 construct: whole, on cells; also called 内源CD47; 人CD47
Nature of the experiment: flow cytometry, blocking of SIRPα-mFc binding to hCLDN18.2-NUGC-4 cells. On the technique in general: In flow cytometry, cells or beads pass a laser one at a time.

T1 sequence (Q08722 19-323): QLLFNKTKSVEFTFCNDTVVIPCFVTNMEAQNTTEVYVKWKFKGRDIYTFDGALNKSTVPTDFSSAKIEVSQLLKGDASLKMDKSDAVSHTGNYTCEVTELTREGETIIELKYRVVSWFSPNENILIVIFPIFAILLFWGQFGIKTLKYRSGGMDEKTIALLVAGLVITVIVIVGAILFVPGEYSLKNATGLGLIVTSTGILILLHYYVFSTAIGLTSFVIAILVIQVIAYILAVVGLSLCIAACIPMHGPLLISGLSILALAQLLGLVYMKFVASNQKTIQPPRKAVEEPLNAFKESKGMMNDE

B1: 抗体1F8 (WO2018075857A1中1F8抗体) (antibody, V domains shown)
VH: KVQLVESGGGLVKPGGSLRLSCAASGFTFSNAWMNWVRQAPGKGLEWVGRIKRKTDGETTDYAAPVKGRFSISRDDSKNTLYLQMNSLKTEDTAVYYCAGSNRAFDIWGQGTMVTVSA
VL: DIVMTQSPDSLAVSLGERATINCKSSQSVLYSSNNRNYLAWYQQKPGQPPKLLINQASTRASGVPDRFSGSGSGTEFTLIISSLHAEDVAIYYCQQYYTPPLAFGGGTKLEIK
In turn, B1 came in with an IC50 of 1.98 µg/mL.
